Patent US20060040324A1
Values belong to the molecule of their own block, whether it stands above or below them. Where no end group is shown, it is not given here. [ ]: non-standard residue; d: D form.

Assays:
tuftsin receptor (human) [1] = assay: competition with 99mTc-labeled peptide on HL-60 cells
tuftsin receptor (human) [2] = assay: competition with trace 99mTc-labeled peptide on formalin-fixed human PMN leukocytes
[3] = molecular target: GP IIb/IIIa platelet receptor (integrin heterodimeric glycoprotein IIb/IIIa) (human) (UniProt P08514); assay: competition with trace 99mTc-labeled peptide on activated formalin-fixed human platelets
UniProt P08514, sequence (P08514 32-1039, chain 1 of 2): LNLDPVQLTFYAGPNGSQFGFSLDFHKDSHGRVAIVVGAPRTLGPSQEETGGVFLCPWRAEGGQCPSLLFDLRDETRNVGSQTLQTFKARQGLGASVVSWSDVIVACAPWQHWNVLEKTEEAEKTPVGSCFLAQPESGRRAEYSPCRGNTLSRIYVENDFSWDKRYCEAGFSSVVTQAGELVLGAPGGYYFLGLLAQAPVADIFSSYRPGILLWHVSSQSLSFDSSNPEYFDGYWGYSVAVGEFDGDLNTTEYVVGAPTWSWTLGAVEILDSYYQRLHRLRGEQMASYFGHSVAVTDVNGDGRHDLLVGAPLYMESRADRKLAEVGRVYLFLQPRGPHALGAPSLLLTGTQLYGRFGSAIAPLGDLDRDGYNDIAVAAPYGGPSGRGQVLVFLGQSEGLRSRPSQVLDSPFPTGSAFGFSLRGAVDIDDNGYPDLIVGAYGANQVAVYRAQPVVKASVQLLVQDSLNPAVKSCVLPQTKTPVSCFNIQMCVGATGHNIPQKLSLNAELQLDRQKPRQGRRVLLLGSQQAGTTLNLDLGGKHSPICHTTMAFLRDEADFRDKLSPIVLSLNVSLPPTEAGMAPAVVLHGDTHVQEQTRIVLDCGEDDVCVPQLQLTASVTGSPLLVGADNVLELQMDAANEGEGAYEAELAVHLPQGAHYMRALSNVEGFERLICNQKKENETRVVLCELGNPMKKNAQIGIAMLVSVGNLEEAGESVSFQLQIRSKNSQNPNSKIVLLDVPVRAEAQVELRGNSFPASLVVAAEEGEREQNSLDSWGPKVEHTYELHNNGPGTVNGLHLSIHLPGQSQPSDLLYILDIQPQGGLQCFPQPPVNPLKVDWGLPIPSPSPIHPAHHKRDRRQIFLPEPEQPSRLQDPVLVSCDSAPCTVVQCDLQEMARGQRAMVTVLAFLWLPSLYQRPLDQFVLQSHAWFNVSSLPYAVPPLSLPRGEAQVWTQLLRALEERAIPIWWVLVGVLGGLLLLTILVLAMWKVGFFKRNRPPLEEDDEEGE
UniProt P08514, sequence (P05106 27-788, chain 2 of 2, further chain): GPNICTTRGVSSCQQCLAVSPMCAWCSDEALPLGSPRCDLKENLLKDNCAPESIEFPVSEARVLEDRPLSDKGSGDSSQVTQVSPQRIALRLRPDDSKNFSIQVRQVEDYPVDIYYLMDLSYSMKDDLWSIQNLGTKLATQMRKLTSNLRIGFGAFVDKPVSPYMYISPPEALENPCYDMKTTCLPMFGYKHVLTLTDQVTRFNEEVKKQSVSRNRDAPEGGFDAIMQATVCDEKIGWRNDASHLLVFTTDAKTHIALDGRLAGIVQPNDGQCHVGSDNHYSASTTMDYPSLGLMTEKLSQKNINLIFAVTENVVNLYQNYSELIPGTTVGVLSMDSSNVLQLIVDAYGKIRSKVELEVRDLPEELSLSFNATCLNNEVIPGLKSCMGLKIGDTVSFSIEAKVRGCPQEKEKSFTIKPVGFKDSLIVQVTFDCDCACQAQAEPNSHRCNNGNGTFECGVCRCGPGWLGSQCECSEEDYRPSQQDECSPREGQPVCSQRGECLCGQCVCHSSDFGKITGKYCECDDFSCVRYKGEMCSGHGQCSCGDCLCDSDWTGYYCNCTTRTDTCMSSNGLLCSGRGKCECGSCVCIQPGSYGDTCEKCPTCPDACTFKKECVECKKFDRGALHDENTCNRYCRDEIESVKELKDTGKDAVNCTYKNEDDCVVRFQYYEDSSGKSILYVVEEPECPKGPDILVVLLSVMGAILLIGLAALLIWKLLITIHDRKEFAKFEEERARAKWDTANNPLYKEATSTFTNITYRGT

tuftsin receptor (human) [4] = assay: radioligand saturation binding, fresh and formalin-fixed HL-60 cells, filtration
tuftsin receptor (human) [5] = assay: radioligand saturation binding, fresh and formalin-fixed human PMN leukocytes, filtration
[6] = molecular target: GP IIb/IIIa platelet receptor (integrin heterodimeric glycoprotein IIb/IIIa) (human) (UniProt P08514); assay: radioligand saturation binding to fresh human blood clots
[7] = molecular target: GP IIb/IIIa platelet receptor (integrin heterodimeric glycoprotein IIb/IIIa) (human) (UniProt P08514); assay: radioligand saturation binding to human blood clots, carrier-free preparation
[8] = molecular target: GP IIb/IIIa platelet receptor (integrin heterodimeric glycoprotein IIb/IIIa) (human) (UniProt P08514); assay: radioligand saturation binding, ADP-activated formalin-fixed human platelets, filtration
[9] = molecular target: GP IIb/IIIa platelet receptor (integrin heterodimeric glycoprotein IIb/IIIa) (human) (UniProt P08514); assay: radioligand saturation binding, ADP-activated human platelets in platelet rich plasma, filtration
tuftsin receptor (human) [10] = assay: cell-based or functional assay
tuftsin receptor (human) [11] = assay: competition with 99mTc-labeled peptide on HL-60 cells; remark: listed apart in the source
tuftsin receptor (human) [12] = assay: binding to human leukocytes

Molecule: ^99mTc-Thr-[D-Lys-Gly-D-Cys]-Arg (peptide)
- Kd (tuftsin receptor (human) [4]): 1 to 5 nM
- Kd (tuftsin receptor (human) [5]): 1 to 5 nM

Molecule: ^99mTc-[D-Arg-Gly-D-Cys]-β-Ala (peptide)
- Kd [6]: 5 to 10 nM
- Kd [7]: 5 to 10 nM
- Kd [8]: 5 to 10 nM
- Kd [9]: 5 to 10 nM

Molecule: ^99mTc-labeled PEG8000-D-Arg-Gly-D-Cys-β-Ala (peptide)
- Kd [6]: 5 to 20 nM

Molecule: TKPR [natural tuftsin Thr-Lys-Pro-Arg]
- nitroblue tetrazolium dye reduction (hexose monophosphate shunt activity) in human PMN granulocytes: concentration of maximal stimulation (tuftsin receptor (human) [10]): 100 nM
- IC50 (tuftsin receptor (human) [11]): 100 nM
- IC50 (tuftsin receptor (human) [2]): 100 nM

Molecule: T[dK]G[dC]R (also: ReO[V] complexed to D-Lys-Gly-D-Cys) [Thr-ReO[V]-[D-Lys-Gly-D-Cys]-Arg]
- nitroblue tetrazolium dye reduction (hexose monophosphate shunt activity) in human PMN granulocytes: concentration of maximum stimulation (tuftsin receptor (human) [10]): 1 to 5 nM
- stimulation of phagocytosis of heat inactivated yeast cells by human PMN granulocytes: concentration of maximal stimulation (tuftsin receptor (human) [10]): 1 nM

Molecule: T[dK]G[dC]R [Thr-D-Lys-Gly-D-Cys-Arg (unlabeled, not complexed to a metal ion)]
- Kd (tuftsin receptor (human) [12]): 100000 nM
- IC50 (tuftsin receptor (human) [2]): 2000 to 5000 nM

Results, then the molecule that gave them:

- IC50 (tuftsin receptor (human) [1]): 1 to 5 nM
- IC50 (tuftsin receptor (human) [2]): 1 to 5 nM
Molecule: ^99Tc-Thr-[D-Lys-Gly-D-Cys]-Arg (peptide)

- IC50 [3]: 5 to 10 nM
Molecule: ^99Tc-[D-Arg-Gly-D-Cys]-β-Ala (peptide)
